Laboratory results as given in patent publication US20190153406.

Legend:
[1] = biological target: IRS1 (insulin receptor substrate-1), species not stated
Chain of IRS1 (insulin receptor substrate-1), species not stated (P35568 whole entry): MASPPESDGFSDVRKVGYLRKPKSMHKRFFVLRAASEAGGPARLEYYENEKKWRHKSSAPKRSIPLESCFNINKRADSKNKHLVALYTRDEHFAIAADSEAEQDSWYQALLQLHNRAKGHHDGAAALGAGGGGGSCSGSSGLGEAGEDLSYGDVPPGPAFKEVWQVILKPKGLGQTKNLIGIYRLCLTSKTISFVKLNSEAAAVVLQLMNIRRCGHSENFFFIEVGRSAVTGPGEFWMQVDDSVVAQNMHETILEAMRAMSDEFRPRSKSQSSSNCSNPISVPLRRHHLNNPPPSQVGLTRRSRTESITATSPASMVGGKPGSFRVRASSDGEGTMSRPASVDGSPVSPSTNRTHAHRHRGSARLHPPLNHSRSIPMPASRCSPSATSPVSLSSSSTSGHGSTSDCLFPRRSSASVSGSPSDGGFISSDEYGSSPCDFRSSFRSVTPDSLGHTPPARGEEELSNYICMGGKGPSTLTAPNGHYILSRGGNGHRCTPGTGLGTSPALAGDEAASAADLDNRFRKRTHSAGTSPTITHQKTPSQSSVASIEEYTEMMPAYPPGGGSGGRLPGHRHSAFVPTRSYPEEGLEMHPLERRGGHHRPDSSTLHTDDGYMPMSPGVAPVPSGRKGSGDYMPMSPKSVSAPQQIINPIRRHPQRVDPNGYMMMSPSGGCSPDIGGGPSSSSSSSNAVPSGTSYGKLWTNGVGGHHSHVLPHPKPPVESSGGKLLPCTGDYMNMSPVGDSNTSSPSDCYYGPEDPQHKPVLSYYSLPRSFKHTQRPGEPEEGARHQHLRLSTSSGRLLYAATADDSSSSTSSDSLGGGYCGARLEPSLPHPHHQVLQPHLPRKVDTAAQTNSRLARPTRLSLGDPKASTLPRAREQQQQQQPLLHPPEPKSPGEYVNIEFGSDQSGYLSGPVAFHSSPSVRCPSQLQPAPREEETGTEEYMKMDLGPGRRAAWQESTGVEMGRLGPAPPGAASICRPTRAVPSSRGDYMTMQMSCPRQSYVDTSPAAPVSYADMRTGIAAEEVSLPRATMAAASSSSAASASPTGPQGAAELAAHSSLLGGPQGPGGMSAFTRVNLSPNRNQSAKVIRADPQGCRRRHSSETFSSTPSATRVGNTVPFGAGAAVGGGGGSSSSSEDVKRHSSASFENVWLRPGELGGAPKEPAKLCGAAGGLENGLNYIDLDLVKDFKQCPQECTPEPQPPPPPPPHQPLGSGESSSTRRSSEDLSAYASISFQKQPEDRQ

| Protein | degradation of IRβ, Western Blot, HEK293T co-expression (FIG. 16B) (insulin receptor IR) | degradation of precursor protein of IRβ, HEK293T co-expression (insulin receptor IR) | also measured |
| --- | --- | --- | --- |
| mouse MG53 S255A mutant (protein) MSAAPGLLRQELSCPLCLQLFDAPVTAECGHSFCRACLIRVAGEPAADGTVACPCCQAPTRPQALSTNLQLSRLVEGLAQVPQGHCEEHLDPLSIYCEQDRTLVCGVCASLGSHRGHRLLPAAEAQARLKTQLPQQKMQLQEACMRKEKTVAVLEHQLVEVEETVRQFRGAVGEQLGKMRMFLAALESSLDREAERVRGDAGVALRRELSSLNSYLEQLRQMEKVLEEVADKPQTEFLMKFCLVTSRLQKILSEAPPPARLDIQLPVISDDFKFQVWKKMFRALMPALEELTFDPSSAHPSLVVSSSGRRVECSDQKAPPAGEDTRQFDKAVAVVAQQLLSQGEHYWEVEVGDKPRWALGVMAADASRRGRLHAVPSQGLWLLGLRDGKILEAHVEAKEPRALRTPERPPARIGLYLSFADGVLAFYDASNPDVLTPIFSFHERLPGPVYPIFDVCWHDKGKNAQPLLLVGPEQEQA | mouse MG53-D-RING truncated mutant and mouse MG53 S255A mutant can hardly mediate IRβ degradation | mouse MG53-D-RING truncated mutant and mouse MG53 S255A mutant almost completely inhibited MG53-mediated degradation | degradation of IRS1, Western Blot, HEK293T co-expression (FIG. 16) [1]: mouse MG53 S255A mutant can only mediate about 40% degradation of IRS1 |
| mouse wild-type MG53 (protein) MSAAPGLLRQELSCPLCLQLFDAPVTAECGHSFCRACLIRVAGEPAADGTVACPCCQAPTRPQALSTNLQLSRLVEGLAQVPQGHCEEHLDPLSIYCEQDRTLVCGVCASLGSHRGHRLLPAAEAQARLKTQLPQQKMQLQEACMRKEKTVAVLEHQLVEVEETVRQFRGAVGEQLGKMRMFLAALESSLDREAERVRGDAGVALRRELSSLNSYLEQLRQMEKVLEEVADKPQTEFLMKFCLVTSRLQKILSESPPPARLDIQLPVISDDFKFQVWKKMFRALMPALEELTFDPSSAHPSLVVSSSGRRVECSDQKAPPAGEDTRQFDKAVAVVAQQLLSQGEHYWEVEVGDKPRWALGVMAADASRRGRLHAVPSQGLWLLGLRDGKILEAHVEAKEPRALRTPERPPARIGLYLSFADGVLAFYDASNPDVLTPIFSFHERLPGPVYPIFDVCWHDKGKNAQPLLLVGPEQEQA | Mouse wild-type MG53 can mediate about 50% degradation of IRβ | mouse wild-type MG53 can mediate the degradation of precursor protein of IRβ | MG53-mediated substrate degradation, Western Blot, HEK293T co-expression (FIG. 16) [1]: human or mouse wild-type MG53 can significantly mediate IRS1 degradation |
| human wild-type MG53 (protein) MSAAPGLLHQELSCPLCLQLFDAPVTAECGHSFCRACLGRVAGEPAADGTVLCPCCQAPTRPQALSTNLQLARLVEGLAQVPQGHCEEHLDPLSIYCEQDRALVCGVCASLGSHRGHRLLPAAEAHARLKTQLPQQKLQLQEACMRKEKSVAVLEHQLVEVEETVRQFRGAVGEQLGKMRVFLAALEGSLDREAERVRGEAGVALRRELGSLNSYLEQLRQMEKVLEEVADKPQTEFLMKYCLVTSRLQKILAESPPPARLDIQLPIISDDFKFQVWRKMFRALMPALEELTFDPSSAHPSLVVSSSGRRVECSEQKAPPAGEDPRQFDKAVAVVAHQQLSEGEHYWEVDVGDKPRWALGVIAAEAPRRGRLHAVPSQGLWLLGLREGKILEAHVEAKEPRALRSPERRPTRIGLYLSFGDGVLSFYDASDADALVPLFAFHERLPRPVYPFFDVCWHDKGKNAQPLLLVGPEGAEA | – | – | MG53-mediated substrate degradation, Western Blot, HEK293T co-expression (FIG. 17) [1]: human or mouse wild-type MG53 can significantly mediate IRS1 degradation |
| human MG53 S255A mutant (protein) MSAAPGLLHQELSCPLCLQLFDAPVTAECGHSFCRACLGRVAGEPAADGTVLCPCCQAPTRPQALSTNLQLARLVEGLAQVPQGHCEEHLDPLSIYCEQDRALVCGVCASLGSHRGHRLLPAAEAHARLKTQLPQQKLQLQEACMRKEKSVAVLEHQLVEVEETVRQFRGAVGEQLGKMRVFLAALEGSLDREAERVRGEAGVALRRELGSLNSYLEQLRQMEKVLEEVADKPQTEFLMKYCLVTSRLQKILAEAPPPARLDIQLPIISDDFKFQVWRKMFRALMPALEELTFDPSSAHPSLVVSSSGRRVECSEQKAPPAGEDPRQFDKAVAVVAHQQLSEGEHYWEVDVGDKPRWALGVIAAEAPRRGRLHAVPSQGLWLLGLREGKILEAHVEAKEPRALRSPERRPTRIGLYLSFGDGVLSFYDASDADALVPLFAFHERLPRPVYPFFDVCWHDKGKNAQPLLLVGPEGAEA | – | – | degradation of IRS1, Western Blot, HEK293T co-expression (FIG. 17) [1]: human MG53 S255A mutant can only mediate about 10% degradation of IRS1 |
